Measured values: patent US20230058316A1, “PEGYLATED IGE-DEPENDENT HISTAMINE-RELEASING FACTOR (HRF)-BINDING PEPTIDE AND USE THEREOF” (EWHA UNIVERSITY - INDUSTRY COLLABORATION FOUNDATION, priority 2020, published 2023)
Read-outs that look alike come from different tables or passages of the source. Where no end group is shown, it is not given here.

Legend:
[1] = test system: eosinophils in bronchoalveolar lavage fluid; assay: Eosinophil increase in bronchoalveolar lavage fluid, ovalbumin-induced bronchial asthma and rhinitis mouse model; type: in vivo; conditions: 1 mg/kg IP, 8 times daily for 8 days, FIG. 9
Protocol: (§1) A bronchial asthma and rhinitis animal model was prepared by the following method. An ovalbumin solution was prepared by dissolving ovalbumin in an aluminum hydroxide solution (1 mg/ml) 28 and 14 days before the start of inducing bronchial asthma and rhinitis, and 200 μl of the solution was intraperitoneally injected into each mouse for sensitization. After 14 days of final sensitization, 20 μl of saline/PBS (normal control; NC) or 20 μl of 10 mg/mL ovalbumin solution (positive control; PC) was instilled into the nasal cavity of each lightly anesthetized mouse 4 times every other day for 8 days to induce bronchial asthma and rhinitis.
After anesthetizing the mouse by injecting a mixture of zoletil (250 mg/kg) and rompun (50 mg/kg) intraperitoneally, a 20-gauge catheter was inserted into the trachea by puncturing the trachea with a knife, and 0.6 mL of PBS at a time was injected-collected three times, and the collection rate was adjusted to 80%. The collected bronchoalveolar lavage fluid was centrifuged at 4° C., 3000 rpm for 10 minutes, and the cell precipitate was resuspended in 0.1 mL of PBS. 20 μL of the suspension was analyzed for the composition of blood cells using a fully automatic hematology analyzer (HEMAVET 950 FS, Drew Scientific, Inc.).

IL-5 = IL-5 secretion in bronchoalveolar lavage fluid, ovalbumin-induced bronchial asthma and rhinitis mouse model; type: in vivo; conditions: 1 mg/kg IP
Protocol: as §1
After the end of the experiment, the amount of IL-5 in the supernatant obtained by centrifuging bronchoalveolar lavage fluid was measured and quantified by enzyme immunosorbent detection using mouse IL-5 ELISA kit (Biolegend, USA).
Next, in order to confirm whether there is an effect of inhibiting IL-5 secretion even when administered in a small number of times, the dTBP2 of Preparative Example 4 and Example 3 was administered to the mouse model of Example 4-1 through intraperitoneal injection once in 4 days for a total of 2 times for 8 days inducing bronchial asthma and rhinitis. The amount of IL-5 was measured and quantified by the enzyme immunosorbent detection method in the same manner.
In addition, the dTBP2 of Preparative Example 4 and Example 3 was administered to the mouse model of Example 4-1 through intraperitoneal injection once on the 1st day of 8 days inducing bronchial asthma and rhinitis. The amount of IL-5 was measured and quantified by the enzyme immunosorbent detection method in the same manner.
The amount of IL-5 was measured and quantified by the enzyme immunosorbent detection method in the same manner.

IL-13 = IL-13 secretion in bronchoalveolar lavage fluid, ovalbumin-induced bronchial asthma and rhinitis mouse model; type: in vivo; conditions: 1 mg/kg IP
Protocol: as §1
After the end of the experiment, the amount of IL-13 in the supernatant obtained by centrifuging bronchoalveolar lavage fluid was measured and quantified by enzyme immunosorbent detection using mouse IL-13 ELISA kit (R&D system, USA).
Next, in order to confirm whether there is an effect of inhibiting IL-13 secretion even when administered in a small number of times, the dTBP2 of Preparative Example 4 and Example 3 was administered to the mouse model of Example 4-1 through intraperitoneal injection once in 4 days for a total of 2 times for 8 days inducing bronchial asthma and rhinitis. The amount of IL-13 was measured and quantified by the enzyme immunosorbent detection method in the same manner.
In addition, the dTBP2 of Preparative Example 4 and Example 3 was administered to the mouse model of Example 4-1 through intraperitoneal injection once on the 1st day of 8 days inducing bronchial asthma and rhinitis. The amount of IL-13 was measured and quantified by the enzyme immunosorbent detection method in the same manner.
The amount of IL-13 was measured and quantified by the enzyme immunosorbent detection method in the same manner.

ovalbumin-specific IgE = assay: Ovalbumin-specific IgE secretion in mouse plasma, ovalbumin-induced bronchial asthma and rhinitis mouse model; type: in vivo; conditions: 1 mg/kg IP
Protocol: as §1
Ovalbumin is an allergy-causing substance mainly contained in egg whites. […] After completion of the experiment, the mouse was anesthetized by injecting a mixture of zoletil (250 mg/kg) and rompun (50 mg/kg) intraperitoneally, and the chest was opened. 0.8 mL blood was collected by puncture of the heart with a 26 gauge 1 mL syringe coated with heparin. The collected blood was centrifuged at 4° C., 3000 rpm for 10 minutes to obtain plasma components. The amount of ovalbumin-specific IgE in the blood serum obtained through the above process was measured and quantified by enzyme immunosorbent detection method using mouse OVA specific IgE kit (Biolegend, USA).
Next, in order to confirm whether there is an effect of inhibiting ovalbumin-specific IgE secretion in plasma even when administered in a small number of times, the dTBP2 of Preparative Example 4 and Example 3 was administered to the mouse model of Example 4-1 through intraperitoneal injection once in 4 days for a total of 2 times for 8 days inducing bronchial asthma and rhinitis. The amount of ovalbumin-specific IgE secretion was measured and quantified by the enzyme immunosorbent detection method in the same manner.
In addition, the dTBP2 of Preparative Example 4 and Example 3 was administered to the mouse model of Example 4-1 through intraperitoneal injection once on the 1st day of 8 days inducing bronchial asthma and rhinitis. The amount of ovalbumin-specific IgE secretion was measured and quantified by the enzyme immunosorbent detection method in the same manner.
The amount of ovalbumin-specific IgE secretion was measured and quantified by the enzyme immunosorbent detection method in the same manner.

[2] = Pharmacokinetic analysis in ICR mice; type: in vivo; conditions: IV, 10 mg/kg
Protocol: The dTBP2 of Preparative Examples 4 and Example 3 was added to a solution prepared in DMSO:PEG400:DW=5:55:40, and this was administered at the concentration of 5 mL/kg. Blood samples were taken at 0.083, 0.25, 0.5, 1, 2, 4, and 8 hours post injection. The blood was centrifuged at 4° C., 3000 rpm for 10 minutes, to which cold acetonitrile containing internal standard was added in an amount 4 times the plasma component, and then deproteinization was carried out. After centrifugation again at 4° C., 13000 rpm for 10 minutes, the supernatant was collected and analyzed by Agilent 6460 LC-MS/MS. Pharmacokinetic analysis was performed with Phoenix WinNonlin (Pharsight ver 6.4, USA) using a non-compartmental analysis model.

[3] = microsomes; for Mouse (%) remaining after reaction: 0.5 h
Protocol: (§2) Upon completion of the reaction, cold acetonitrile containing internal standard was added, and then deproteinization was carried out. The reactant was centrifuged at 4° C., 4000 rpm for 15 minutes, and the supernatant was analyzed by LC-MS/MS. The system was verified with buspirone, a reference material.

[4] = microsomes; for Human (%) remaining after reaction: 0.5 h
Protocol: as §2

Example 3: dTBP2 (WYVYPSM) conjugated at the N-terminal with methoxy polyethylene glycol propionaldehyde (10 kDa) ({mPEG propionaldehyde 10 kDa}-WYVYPSM)
reduction of increased eosinophils vs positive control [1]: about 55% | reduction of IL-5 secretion (IL-5; 8 times daily for 8 days, FIG. 10): about 50% | inhibiting IL-5 secretion (IL-5; once in 4 days for a total of 2 times (FIG. 11) and once on the 1st day (FIG. 12)): effective | IL-5 secretion inhibitory effect (IL-5; once on the 5th day of 8 days, FIG. 13): effectively inhibited | reduction of IL-13 secretion (IL-13; 8 times daily for 8 days, FIG. 18): about 20% | inhibiting IL-13 secretion (IL-13; once in 4 days for a total of 2 times (FIG. 19) and once on the 1st day (FIG. 20)): effective | IL-13 secretion inhibitory effect (IL-13; once on the 5th day of 8 days, FIG. 21): inhibitory effect | inhibitory ability on ovalbumin-specific IgE secretion compared with dTBP2 of Preparative Example 4 (ovalbumin-specific IgE; FIGS. 23 and 24): better | inhibiting ovalbumin-specific IgE secretion (ovalbumin-specific IgE; once in 4 days for a total of 2 times (FIG. 23) and once on the 1st day (FIG. 24)): effective | ovalbumin-specific IgE secretion inhibitory effect (ovalbumin-specific IgE; once on the 5th day of 8 days, FIG. 25): inhibitory effect | inhibiting ovalbumin-specific IgE secretion in plasma (in words) (ovalbumin-specific IgE; plasma, 8 times daily for 8 days): very effective | reduction of ovalbumin-specific IgE secretion (ovalbumin-specific IgE; plasma, 8 times daily for 8 days, FIG. 22): about 50% | AUClast [2]: 2830 ng·h/mL | AUC∞ [2]: 3150 ng·h/mL | CL (clearance from plasma) [2]: 54.8 mL/min/kg | T1/2 (half life) [2]: 3.18 h | Vss (steady-state volume of distribution) [2]: 7.37 L/kg | increase of half-life compared to the dTBP2 of Preparative Example 4 [2]: about 1.6 times | initial plasma concentration relative to the dTBP2 of Preparative Example 4 [2]: about 1000 times | stability in plasma ([2]; FIG. 26, versus Preparative Example 4): improved | Mouse (%) remaining after reaction [3]: more than 75% | Mouse (%) remaining after reaction ([3]; pH 7.4): 75.26% | half-life according to the evaluation criteria ([3]; mouse): 1 to 3 h | half-life according to the evaluation criteria ([4]; human): 1 to 3 h | Human (%) remaining after reaction [4]: more than 75% | Human (%) remaining after reaction ([4]; pH 7.4): 75.77%
